Results from patent US20250355001A1 (GTINVENT, published 2025).
Residue numbers refer to the chain shown, from its start.

What was measured:
[1] = target: T1, full length human tau protein 2N4R (hT40) (human, UniProt P10636 1-758); test: SPR, summary table
T1 construct: recombinant; also called T441
Method: (§1) The capture antibody was diluted 1/100 in 10 mM Sodium acetate buffer pH 5.0 and passed over the activated chip surface for a period of at least 420 s. Final ligand immobilisation levels over 12,000 RU were deemed to be satisfactory.
(§2) The scAb to be tested was added only to flow cell 2 so that flow cell 1 could act as a control to subtract any interaction with the analyte and the chip surface. […] The multi-cycle protocol was as follows-Three start-up cycles composed of an initial capture, to the desired level, of the scAb to be tested was performed followed by a 30 s injection of glycine buffer pH 2.0 after each cycle to regenerate the chip surface. […] The target was added for a 120 s association period and 420 s dissociation period followed by another regeneration, 30 s injection of glycine buffer pH 2.0 in between each cycle.
(§3) The single cycle kinetics protocol was similar and utilised the same level of scAb capture. […] In single cycle kinetics the regeneration step was performed only after the final analyte concentration was added. Binding responses were analysed in Biacore X100 evaluation software and data fitted to a 1:1 binding model to obtain kinetic and affinity characterisation.

[2] = target: T1, full length human tau protein 2N4R …; test: SPR, scAb captured, tau analyte
Method: as §1, §2, §3

dGA (tau 297-390) = dGA (tau 297-390) (human, UniProt P10636 614-707); test: SPR, scAb captured, tau analyte
Chain of dGA (tau 297-390) (P10636 614-707 limits assumed): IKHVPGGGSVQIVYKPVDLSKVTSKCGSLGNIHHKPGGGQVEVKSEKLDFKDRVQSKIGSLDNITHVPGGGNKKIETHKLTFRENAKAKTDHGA
Method: as §1, §2, §3

[3] = target: T1, full length human tau protein 2N4R …; test: SPR, hT40 immobilised, mAb analyte
Method: (§4) For anti-tau mAb SPR measurements, htau40 was conjugated to the surface of a CM5 sensor chip using amine coupling as explained previously. Briefly, 2 μg/mL htau40 in 10 mM Sodium acetate buffer (pH 4.0) was passed over the activated chip surface (EDC/NHS) in flow cell 2 for a period for 45 s followed by blocking with 1 M ethanolamine-HCl PH 8.5. Flow cell 1 was set up as reference control and blocked simultaneously. Final immobilisation level of htau40 (Rmax) was approximately 250 RU. […] The mAb was added for a 120 s association period and 600 s dissociation period followed by a regeneration cycle of 30 s injection of glycine buffer pH 1.5 in between each cycle. Binding responses were analysed in Biacore X100 evaluation software and data fitted to a 1:1 binding model to obtain kinetic and affinity characterisation.

[4] = target: T1, full length human tau protein 2N4R …; test: SPR, hT40 immobilised, mAb analyte; remark: listed apart in the source
Method: as §4
For anti-tau mAb SPR measurements (Biacore X100™) and epitope mapping, the same methodologies described above (see Example 16) were followed.

[5] = target: T1, full length human tau protein 2N4R …; test: Biacore
Method: as §1, §2, §3

[6] = target: T1, full length human tau protein 2N4R …; test: sandwich ELISA, S1D12 mAb capture, scAb detection
Method: Full length tau (hT40), at 1 μg/ml starting concentration was added to designated wells and double diluted across rest of the plates and left to incubate at R/T for 1 h. A series of detection scAbs with varying epitope recognition properties were added at 10 μg/ml to designated wells (FIG. 22). For colourimetric detection HRP conjugated anti-HuCk secondary antibody was used and the resulting immunoreaction was developed and absorbance at 450 nm measured as described previously. Cut-off point for a positive binding event was an absorbance value of 0.3 following background subtraction. In order to enhance the assay sensitivity, a chemiluminescent detection method was adopted where 50 μL SuperSignal ELISA Femto Substrate (Thermo Scientific) was added to each well following incubation with anti-HuCK HRP antibody and subsequent washing. The luminescence was read using Clariostar Plus microplate reader. A further modification to this protocol was done where various detection scAbs were directly conjugated with HRP and detected using chemiluminescent protocol as before.

T1 sequence (P10636 other isoform, or with tags, fused parts or gaps limits assumed): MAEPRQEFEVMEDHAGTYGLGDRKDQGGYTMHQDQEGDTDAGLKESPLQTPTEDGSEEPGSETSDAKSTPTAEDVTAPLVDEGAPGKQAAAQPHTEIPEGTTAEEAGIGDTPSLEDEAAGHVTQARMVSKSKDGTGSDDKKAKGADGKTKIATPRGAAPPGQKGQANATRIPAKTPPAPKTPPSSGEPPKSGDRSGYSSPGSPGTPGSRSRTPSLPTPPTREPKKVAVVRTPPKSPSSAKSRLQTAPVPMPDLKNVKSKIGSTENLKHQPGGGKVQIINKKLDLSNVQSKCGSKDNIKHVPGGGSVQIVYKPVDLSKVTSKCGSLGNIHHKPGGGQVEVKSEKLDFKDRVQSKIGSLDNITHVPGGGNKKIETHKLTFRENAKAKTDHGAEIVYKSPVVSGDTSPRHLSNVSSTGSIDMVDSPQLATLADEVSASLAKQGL

B1: S1E12 scAb (scFv, not shown: small tags and cut ends)
scFv: QVQLQESGPSLVKPSQTLSLTCTVSGFSLGSNSVGWVRQAPGKAPEWVAGIDTDGEEGYNPALNSRLSITRDTSKSQVSLSLSSVTSEDTAVYYCGRSYRADGLAYGYVQAIDYWGPGLLVTVSSEGKSSGASGESKVDDRVVRTQPSSVSGSLGQRVSITCSGSFIGISSVGWFQQLPGSGLRTIIVASDGRPSGVPDRFSMSKSGNTATLTISSLQAEDEADYFCGSSDRTQYTGVFGSGTRLTVLG
notes: scAb
Kd [1]: 0.829 nM | Kd [2]: 0.829 nM | koff [2]: 0.000319 s⁻¹ | kon [2]: 385000 M⁻¹ s⁻¹ | Kd (dGA (tau 297-390)): 0.543 nM | koff (dGA (tau 297-390)): 0.00163 s⁻¹ | kon (dGA (tau 297-390)): 2.99e+06 M⁻¹ s⁻¹

B2: CE2 mAb (antibody, mouse IgG2a, V domains shown)
VH: QVQLQESGPSLVKPSQTLSLTCTVSGFSLTNYPVGWVRQAPGKALEWIGNIENDGSANYASALKSRLSITRDTSKNQVSLSLSSATTEDTAVYYCGREFGGSDGYTYFVDIDYWGPGLLVTVSS
VL: QAVLTQPSSVSKSLGQSVSITCSGSSSNVGYGNYVSWFQQVPGSAPKILIYGATSRASGVPDRFSGSRSGNTATLTITSLQAEDEADYYCASYDGSSSGVFGSGTRLTVLG
notes: sheep-mouse IgG2a chimeric mAb
Kd [3]: 11 nM | koff [3]: 0.00522 s⁻¹ | kon [3]: 458000 M⁻¹ s⁻¹

B3: E1B8 mAb (antibody, V domains shown)
VH: B2 VH
VL: B2 VL
Kd [4]: 4.22 nM | koff [4]: 0.00137 s⁻¹ | kon [4]: 324000 M⁻¹ s⁻¹

B4: CE3 mAb (antibody, mouse IgG2a, V domains shown)
VH: QVRLQESGPSLVKPSQTLSVTCTVSGFSLISNAVGWVRQAPGKVPESLAGCSSDGKCYYNSALKSRLDITRDTSKNQISLSLSSVTTDDAAVYYCTRGYYPVYGYDYLGTIDYWGPGLLVTVSS
VL: QAVLTQPSSVSGSLGQRVSITCSGSSSNVGRNDVAWFQQLPGSGLRTIIYGTTSRPSGIPDRFSGSKSGVTATLTIDSLQAEDEADYFCASGDSSAINDIFGSGTRLTVLG
notes: as for B2
Kd [3]: 16.7 nM | koff [3]: 0.00172 s⁻¹ | kon [3]: 103000 M⁻¹ s⁻¹

B5: CC7 scAb (scFv, not shown: small tags and cut ends)
scFv: QVQLQESGPSLVKPSQTLSLTCTVSGFSLTSNAVIWVRQAPGKAPEWVALIDVDGDAAYDPALKSRLSITRDTSKSQVSLSLRSVTTEDTAVYYCARDYGSWGYVSDIDYWGPGLLVTVSSEGKSSGASGESKVDDRVVRTQPSSVSGSLGQRVSITCSGSYITGSSVGWFQQVPGSGLKTVIYDNNDRPSGVPDRFSGSKSGDTATLTISSLQAEDEADYYCASYDTSNIGLFGSGTRLTVLG
notes: scAb
Kd [5]: 1.2 nM | Kd [1]: 1.23 nM | Kd [2]: 1.23 nM | koff [2]: 0.000366 s⁻¹ | kon [2]: 296000 M⁻¹ s⁻¹ | LoD chemiluminescence detection [6]: 3.33 ng/mL | LoD colourimetric detection [6]: 6 ng/mL

B6: 3bD11 mAb (antibody)
chain: RVRLQGSGPSLVKPSQTLSLTCTVSGFSFDSYYVGWVRQAPGKALEWLGNIYSTGRAFYNPALKSRLSITRDTSKSQVSLSVSSVTIEDTALYYCVRGSYYHGGGNGMVDFFDYWSPGLLVTVSSEGKSSGASGESKVDDQVVRTQPSSVSGSLGQRVSITCSGSSSNVGYGNYVGWFQQVPGSAPKLLIYAATSRASGVPDRFSGSRSGNTATLTIDSLQAEDEADYYCSSYQRGNTGVFGSGTRLTVLG
Kd [4]: 1.49 nM | koff [4]: 0.00398 s⁻¹ | kon [4]: 2.67e+06 M⁻¹ s⁻¹

B7: 3aH6 mAb (antibody)
heavy: QVQLQESGPSLVKPSQTLSLTCTVSGFSLSSNGVGWVRQAPGKVPEWLGDISSVGKKYANPALKSRLSFTRDTSKSQVSLSLSSVTTEDTAVYYCVKCRDGGVTYGYDIDYWGPGLLVTASSAKTTAPSVYPLAPVCGDTTGSSVTLGCLVKGYFPEPVTLTWNSGSLSSGVHTFPAVLQSDLYTLSSSVTVTSSTWPSQSITCNVAHPASSTKVDKKIEPRGPTIKPCPPCKCPAPNLLGGPSVFIFPPKIKDVLMISLSPIVTCVVVDVSEDDPDVQISWFVNNVEVHTAQTQTHREDYNSTLRVVSALPIQHQDWMSGKEFKCKVNNKDLPAPIERTISKPKGSVRAPQVYVLPPPEEEMTKKQVTLTCMVTDFMPEDIYVEWTNNGKTELNYKNTEPVLDSDGSYFMYSKLRVEKKNWVERNSYSCSVVHEGLHNHHTTKSFSRTPGK
light: QAVVTQPSSVSGSLGQSVSITCSGSSGNVGYGDYVSWFQQFHGSAPKLLIYGATNLASGVPARFSGSRSGNTATLTISSLHAEDEADYYCASYDSSSGGVFGSGTRLTVLGGQPKSSPSVTLFPPSSEELETNKATLVCTITDFYPGVVTVDWKVDGTPVTQGMETTQPSKQSNNKYMASSYLTLTARAWERHSSYSCQVTHEGHTVEKSLSRADCS
Kd [4]: 0.049 nM | koff [4]: 0.000152 s⁻¹ | kon [4]: 3.13e+06 M⁻¹ s⁻¹

B8: 412E10 mAb (antibody, mouse IgG2a, V domains shown)
VH: QVQLQESGPSLVKPSQTLSLTCTVSGFSVISDSVAWVRQAPGKVPEWLGASGSSGNKYYNPALKSRLSITRDTSKSQVSLSLSSVTTEDTAVYYCARGIIAGVDVWGRGLLVTVSS
VL: QAVLTQPSSVSGSLGQRVSITCSGSSSNVGYGNYVGWYQQVPGSAPKLLIYGTAIRASGVPDRFSGSRSGDTATLTITSLQAEDEADYYCASYQSNYAFFGSGTRLTVLG
notes: as for B2
Kd [3]: 9 nM | koff [3]: 0.015 s⁻¹ | kon [3]: 1.66e+06 M⁻¹ s⁻¹

B9: 3bG4 mAb (antibody, mouse IgG2a, V domains shown)
VH: QVQLQESGPSLVKPSQTLSLTCTISGFSLISNGVGWVRQAPGKVPEWVGDIASSGKAYSNPALKSRLSITRDTSKSQVSLSLRSVTTEDTAVYYCVRCRDGGVTYGYDIDYWGPGLLVTVSS
VL: QAVLTQPSSVSKSLGQSVSITCSGSTSNVGSGNDVSWFQQVPGSAPKLLFYGATNRASGVPDRFSGSRSGNTATLTITSLQAEDEADYYCGSYDSNSGGIFGSGTRLTVLG
notes: as for B2
Kd [4]: 0.065 nM | koff [4]: 0.000296 s⁻¹ | kon [4]: 4.54e+06 M⁻¹ s⁻¹

B10: 3aG3 mAb (antibody, V domains shown)
VH: B9 VH with I24V, I30S, A52S, S59A, S74A, S76T, S79F, R83S, T104S
VL: QAVLTQPPSVSGSPGQRVSITCSGSSSNIGGGNYLSWFQQVPGSAPKLLIYGATSRASGVPDRFSGSRSGNTATLTISSLQAEDEADYYCASFDTSSGGIFGAGTRLTVLG
Kd [4]: 0.31 nM | koff [4]: 0.00475 s⁻¹ | kon [4]: 1.53e+07 M⁻¹ s⁻¹

B11: MD9 mAb (antibody, V domains shown)
VH: QVRLQESGPSLVKSSQTLSLTCTVSGFSLTRESIAWVRQAPGKVPEWLGGVGIDGTSYYSPALKSRLSITRDTSKSQASLSLSSVATEDTAMYYCARNYIDFEYWGPGLLVTVSS
VL: QAVLTQLSSVSGSLGQRISITCSGSSSNVGIYDVSWFQQLPGSGLRTVIYGTNNRPSGVPDRFSGSRSGNTATLTISSLQSEDEAIYYCAAGDSSTIAVFGSGTRLTVLG
Kd [4]: 22 nM | koff [4]: 0.00146 s⁻¹ | kon [4]: 66200 M⁻¹ s⁻¹
